Reference: US20210277147A1 (SINO SWED TONGKANG BIO TECH SHENZHEN, published 2021)

Tests used:
[1] = target: T1, recombinant human thymidine kinase 1 (hTK1) protein (human, UniProt P04183 1-234, limits assumed); assay: indirect ELISA on coated hTK1, HRP-labeled anti-HA monoclonal antibody detection
T1 construct: ELISA coating antigen at 0.5 ug/ml, 100 ul per well (50 ng/well); also called recombinant hTK1 antigen
T1 sequence (looked up): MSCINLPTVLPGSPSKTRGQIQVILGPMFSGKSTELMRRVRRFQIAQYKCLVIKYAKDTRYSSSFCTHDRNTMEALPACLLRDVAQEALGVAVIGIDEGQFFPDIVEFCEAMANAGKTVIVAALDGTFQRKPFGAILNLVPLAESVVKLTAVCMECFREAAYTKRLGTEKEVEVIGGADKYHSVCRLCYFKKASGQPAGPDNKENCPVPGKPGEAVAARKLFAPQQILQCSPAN
Protocol: (§1) The recombinant IgY scFv antibody contains not only the hypervariable region that binds to hTK1, but also the highly conserved framework region (FR). In this embodiment, the HA 9-peptide tag of human influenza hemagglutinin was added. Therefore, when detecting recombinant single-chain antibodies by indirect ELISA, biotin-labeled anti-full-length IgY secondary antibody and horseradish peroxidase-labeled anti-human influenza hemagglutinin HA 9-peptide monoclonal antibodies were used as labeled antibodies, to detect recombinant anti-hTK1 single-chain antibody expressed in CHO cells. The supernatant of the transfected cells was collected and the expression level of recombinant scFv antibody was detected by ELISA experiment. The specific method is as follows:
(§2) The OD value of the CHO cell supernatant transfected with the scFv antibody gene is 6.6 times that of the CHO cell supernatant not transfected, and the ratio of the recombinant hTK1 antigen to the negative antigen control is 6.9.

[2] = target: T1, recombinant human thymidine kinase 1 …; assay: indirect ELISA on coated hTK1, anti-full-length IgY biotin detection
Protocol: as §1, §2

[3] = target: T1, recombinant human thymidine kinase 1 …; assay: indirect ELISA, hTK1-coated wells against coating-solution wells, anti-full-length IgY biotin detection
Protocol: as §1, §2

[4] = target: T1, recombinant human thymidine kinase 1 …; assay: indirect ELISA, hTK1-coated wells against coating-solution wells, HRP-labeled anti-HA monoclonal antibody detection
Protocol: as §1, §2

B1: recombinant anti-hTK1 chicken IgY single-chain variable fragment (scFv) antibody expressed in CHO cells (scFv)
scFv: MAAVTLDESGGGLQTPGGALSLVCKGSGFTFSSDAMGWMRQAPGKGLEFVARINSAGSYTDYGSAVDGRATISRDNGQSTVRLQLNNLRAEDTSTYFCAKSPGGFSCAYGLCWDAAGSIDAWGHGTEVIVSSGGGSGGGGSGGGGSGGGSALTQPSSVSANLGGTVKITCSGGANYYGWFQQKTPGSAPVSLIYESTKRPSNIPSRFSGSKSGSTGTLTITGVRADDEAVYYCGTYDSSTHTSIFGAGTTLYPYDVPDYA
notes: Tested as unpurified supernatant of transiently transfected CHO cells; also called recombinant IgY scFv antibody; recombinant anti-hTK1 single-chain antibody
- OD ratio to the untransfected CHO cell supernatant [1]: 2.6 fold
- OD ratio to the CHO cell supernatant not transfected [2]: 6.6 fold
- ratio of the recombinant hTK1 antigen to the negative antigen control [3]: 6.9 ratio
- ratio of the recombinant hTK1 antigen to the negative antigen control [4]: 0.287 ratio
